This passage reports EC50 results from patent publication US20080268015A1 (AFFINERGY, published 2008).

Primed or numbered codes have the meaning given here. Where no end group is shown, it is not given here. [ ]: non-standard residue; d: D form. PEG10′ = non-peptide PEG10 spacer Bounds are passed on as bounds.

Sequence of BMP2 (Bone Morphogenetic Protein 2) (P12643 283-396 limits assumed): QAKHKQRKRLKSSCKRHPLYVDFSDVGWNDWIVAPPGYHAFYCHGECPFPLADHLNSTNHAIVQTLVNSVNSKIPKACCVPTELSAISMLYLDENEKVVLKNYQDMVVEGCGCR

This experiment addresses BMP2 (Bone Morphogenetic Protein 2) (UniProt P12643 283-396). As to the kind of experiment: ELISA: composition (10 uM) pre-bound to DBM, serial dilutions of BMP-2, detected with anti-BMP-2 antibody. As to the method: A binding assay was performed using ELISA; and the resultant absorbance observed across the concentration range of pharmaceutically active agent yielded a binding curve and rough dissociation constant of the composition which were used to calculate an EC50. Appropriate controls, including absence of the composition, were included in the assay.
As a specific example, DBM was placed in a microtiter plate at a concentration of 3 mg equivalents per well, and then the wells and DBM were blocked with buffer containing 1% BSA for 1 hour at room temperature. The buffer containing 1% BSA was then aspirated from each well, and added to each of the wells was 100 μl of buffer containing 10 μM of the respective composition embodiments. The microtiter plates were incubated for 1 hour at room temperature on a plate shaker. The DBM was then allowed to settle, and the buffer was then aspirated from the wells. The DBM was washed three times with buffer-T, and then serial dilutions of BMP-2 were added to the wells in 100 μl of buffer. The microtiter plates were then incubated for 1 hour at room temperature on a plate shaker. The DBM, having composition bound thereto, was then allowed to settle, and then buffer was aspirated from the wells. The DBM-composition combination was washed three times with buffer-T. Commercial murine anti-BMP-2 antibody was diluted 1:1000 in buffer containing 1% BSA, and 100 μl was added per well. The plates were incubated for 30 minutes at room temperature on a plate shaker, and then the wash step was repeated. Commercial anti-mouse antibody labeled with alkaline phosphatase was diluted 1:1000 in buffer containing 1% BSA, and 100 μl was added per well. The plates were incubated for 30 minutes at room temperature on a plate shaker, and then the wash step was repeated. Added to each well was 200 μl of substrate pNPP, and the plates were incubated at room temperature on a plate shaker to develop the assay. 100 μl of solution was removed from each well and added to a respective well of a new microtiter plate which was then read on a spectrophotometer and the absorbance was recorded at 405 nm. An estimate of the relative affinity, binding specificity, EC50 of the composition for pharmaceutically active agent can be made by determining the concentration of peptide that provides one-half the maximal signal in the assay.
In general terms: ELISA stands for enzyme-linked immunosorbent assay.
For orientation: EC50 means the concentration giving half of the maximal effect. For SWWGFWNGSAAPVWSRGSSGAGAWEAFSSLSGSRVGSSGK (also: biotin linked to C-terminal GSSGK linker, site not given here), the EC50 is less than 10 nM.
Under SFGSWWWGSGAASSRGSSGGGALGFPLKGEVVEGWAGSSGK (also: biotin linked to C-terminal GSSGK linker, site not given here) stands less than 10 nM; under SWWGFWNGSAAPVWSRGSSGAGALGFPLKGEVVEGWAGSSGK (also: biotin linked to C-terminal GSSGK linker, site not given here), less than 10 nM.
Under SWWGFWNGSAAPVWSRGSSESAGAWEAFSSLSGSRVGSSGK (also: biotin linked to C-terminal GSSGK linker, site not given here) stands less than 10 nM; under SFGSWWWGSGAASSRG[PEG10′]AGAWEAFSSLSGSRVGSSGK (also: C-terminal amino linker biotinylated), less than 10 nM.
On to SFGSWWWGSGAASSRG[PEG10′]GGGAWEAFSSLSGSRVGSSGK (also: C-terminal amino linker biotinylated), for which the EC50 was less than 10 nM.
